Experimental data: WO2007044695A2 (dated 2007)

Biological target: GD03-S1(318-510)-C9 protein (SARS-CoV GD03 (GD03T0013), UniProt P59594 318-510)
Experiment: ELISA, serial dilutions of coated S1-(318-510)-C9 protein, 0.5 ug/ml IgG1

B1: 11A IgG1 (antibody, V domains shown)
VH: EVQLVQSGAEVKKPGESLKISCKGSGYSFTSYWIGWVRQMPGKGLEWMGIINPDNSDTRFSPSLQGQVTISVDKSINTVYLQWGSLKASDTAMYYCARQGDYSGPSINYWGQGTLVTVSS
VL: QSVLTQPASVSGSPGQSITISCTGTSSDVGGYNYVSWYQQHPGKAPKLMIYDVSKRPSGIPERFSGSNSGNTATLTISGTQAMDEADYYCQAWDSNTYVFGTGTKVTVLV
B1: binds.
